B1: eukaryotic release factor 1 (eRF1) (natural protein, yeast (endogenous in yeast cells), UniProt P12385 1-437, looked up)
chain: MDNEVEKNIEIWKVKKLVQSLEKARGNGTSMISLVIPPKGQIPLYQKMLTDEYGTASNIKSRVNRLSVLSAITSTQQKLKLYNTLPKNGLVLYCGDIITEDGKEKKVTFDIEPYKPINTSLYLCDNKFHTEVLSELLQADDKFGFIVMDGQGTLFGSVSGNTRTVLHKFTVDLPKKHGRGGQSALRFARLREEKRHNYVRKVAEVAVQNFITNDKVNVKGLILAGSADFKTDLAKSELFDPRLACKVISIVDVSYGGENGFNQAIELSAEALANVKYVQEKKLLEAYFDEISQDTGKFCYGIDDTLKALDLGAVEKLIVFENLETIRYTFKDAEDNEVIKFAEPEAKDKSFAIDKATGQEMDVVSEEPLIEWLAANYKNFGATLEFITDKSSEGAQFVTGFGGIGAMLRYKVNFEQLVDESEDEYYDEDEGSDYDFI
notes: eRF1 (SUP45), yeast; also called SUP45; source: endogenous, yeast whole cell extract
B2: eukaryotic release factor 3 (eRF3) (natural protein, yeast (endogenous in yeast cells), UniProt P05453 1-685, looked up)
chain: MSDSNQGNNQQNYQQYSQNGNQQQGNNRYQGYQAYNAQAQPAGGYYQNYQGYSGYQQGGYQQYNPDAGYQQQYNPQGGYQQYNPQGGYQQQFNPQGGRGNYKNFNYNNNLQGYQAGFQPQSQGMSLNDFQKQQKQAAPKPKKTLKLVSSSGIKLANATKKVGTKPAESDKKEEEKSAETKEPTKEPTKVEEPVKKEEKPVQTEEKTEEKSELPKVEDLKISESTHNTNNANVTSADALIKEQEEEVDDEVVNDMFGGKDHVSLIFMGHVDAGKSTMGGNLLYLTGSVDKRTIEKYEREAKDAGRQGWYLSWVMDTNKEERNDGKTIEVGKAYFETEKRRYTILDAPGHKMYVSEMIGGASQADVGVLVISARKGEYETGFERGGQTREHALLAKTQGVNKMVVVVNKMDDPTVNWSKERYDQCVSNVSNFLRAIGYNIKTDVVFMPVSGYSGANLKDHVDPKECPWYTGPTLLEYLDTMNHVDRHINAPFMLPIAAKMKDLGTIVEGKIESGHIKKGQSTLLMPNKTAVEIQNIYNETENEVDMAMCGEQVKLRIKGVEEEDISPGFVLTSPKNPIKSVTKFVAQIAIVELKSIIAAGFSCVMHVHTAIEEVHIVKLLHKLEKGTNRKSKKPPAFAKKGMKVIAVLETEAPVCVETYQDYPQLGRFTLRDQGTTIAIGKIVKIAE
notes: eRF3 (SUP35), yeast; also called SUP35; source: endogenous, yeast whole cell extract
B3: ABCE1/RLI1 (natural protein, yeast (endogenous in yeast cells), UniProt Q03195 1-608, looked up)
chain: MSDKNSRIAIVSADKCKPKKCRQECKRSCPVVKTGKLCIEVTPTSKIAFISEILCIGCGICVKKCPFDAIQIINLPTNLEAHVTHRYSANSFKLHRLPTPRPGQVLGLVGTNGIGKSTALKILAGKQKPNLGRFDDPPEWQEIIKYFRGSELQNYFTKMLEDDIKAIIKPQYVDNIPRAIKGPVQKVGELLKLRMEKSPEDVKRYIKILQLENVLKRDIEKLSGGELQRFAIGMSCVQEADVYMFDEPSSYLDVKQRLNAAQIIRSLLAPTKYVICVEHDLSVLDYLSDFVCIIYGVPSVYGVVTLPASVREGINIFLDGHIPAENLRFRTEALQFRIADATEDLQNDSASRAFSYPSLKKTQGDFVLNVEEGEFSDSEILVMMGENGTGKTTLIKLLAGALKPDEGQDIPKLNVSMKPQKIAPKFPGTVRQLFFKKIRGQFLNPQFQTDVVKPLRIDDIIDQEVQHLSGGELQRVAIVLALGIPADIYLIDEPSAYLDSEQRIICSKVIRRFILHNKKTAFIVEHDFIMATYLADKVIVFEGIPSKNAHARAPESLLTGCNRFLKNLNVTFRRDPNSFRPRINKLDSQMDKEQKSSGNYFFLDNTGI
notes: source: endogenous, yeast whole cell extract

Legend:
TAP-tagged HCR1 = target: T1, TAP-tagged HCR1 (yeast, UniProt Q05775 1-265); assay: pull-down; TAP-tagged chromosomal alleles; cells treated with 1% HCHO before harvest; WCE (1 mg protein) in buffer B (50 mM Tris-HCl pH 7.6, 150 mM NaCl, 0.05% Tween 20) with or without 0.1 mg/ml RNase A; IgG Sepharose 6 Fast Flow beads, 2 h at 4°C; eluted by boiling in SDS buffer or by TEV protease; untagged wt strain as control; Western analysis; conditions: partners not purified
T1 construct: eIF3j/HCR1, yeast; chromosomal TAP-tagged allele; also called eIF3j/HCR1; source: chromosomal TAP-tagged allele, yeast strain H553, cells treated with 1% HCHO, in whole cell extract
T1 sequence (Q05775 whole entry): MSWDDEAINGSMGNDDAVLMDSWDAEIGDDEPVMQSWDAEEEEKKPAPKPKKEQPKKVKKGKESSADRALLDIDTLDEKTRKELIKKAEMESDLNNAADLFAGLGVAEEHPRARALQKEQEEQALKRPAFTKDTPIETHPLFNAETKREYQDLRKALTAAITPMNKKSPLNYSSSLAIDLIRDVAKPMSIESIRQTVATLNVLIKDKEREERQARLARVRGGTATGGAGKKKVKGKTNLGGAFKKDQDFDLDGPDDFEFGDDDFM

Myc-tagged RLI1 = target: T2, Myc-tagged RLI1 (yeast, UniProt Q03195 1-608); assay: co-IP; WCE of yeast YDH353 (chromosomal Myc-tagged RLI1), 500 µg total protein, 1 µl mouse anti-Myc-Tag IgG, with or without antibody; lysis in buffer A (30 mM HEPES pH 8.8, 20 mM KAc, 3 mM magnesium acetate, 1 mM DTT, 1% Nonidet P-40); Western analysis; conditions: partners not purified
T2 construct: chromosomal Myc-tagged allele; also called ABCE1/RLI1; source: chromosomal Myc-tagged allele, yeast strain YDH353, in whole cell extract

Binder | percent of input co-purified (TAP-tagged HCR1) [%] | percent of input co-precipitated (Myc-tagged RLI1)
B1 | ~2 | ~22 % of the input
B2 | 9 ± 0.2 | ~13 % of the input
B3 | ~58 | –
